B1: ZmNRT1.1A promoter probe (dsDNA)
DNA 1: ATATATAGCGGGGCGCCGCCCACCCGGCGGAGC
DNA 2: GCTCCGCCGGGTGGGCGGCGCCCCGCTATATAT
B2: ZmNRT2.5 promoter probe (dsDNA)
DNA 1: GCCGCGCCCGCTGCCGCCTCCCAGCTCGCT
DNA 2: AGCGAGCTGGGAGGCGGCAGCGGGCGCGGC
B3: Motif 1 probe (WT) (dsDNA)
DNA 1: CTCGGTCCACGCCGCCCGTCGGGGTTCG
DNA 2: CGAACCCCGACGGGCGGCGTGGACCGAG
B4: ZmNRT2.1 promoter probe (dsDNA)
DNA 1: CCAGCAGCAGCAGCCGACTAAACGGCATAGA
DNA 2: TCTATGCCGTTTAGTCGGCTGCTGCTGCTGG
B5: ZmNRT3.1A promoter probe (dsDNA)
DNA 1: CACCAGCACCGGCGCCGCCATTCGCCCCCTG
DNA 2: CAGGGGGCGAATGGCGGCGCCGGTGCTGGTG
B6: ZmNRT1.1B promoter probe (dsDNA)
DNA 1: AACAGGAGCACCCGCCGCCATGCTGCTCGCT
DNA 2: AGCGAGCAGCATGGCGGCGGGTGCTCCTGTT
B7: ZmNRT1.2 promoter probe (dsDNA)
DNA 1: CCACCGCACTGTCGCCGCCGTGCAGGCTCCA
DNA 2: TGGAGCCTGCACGGCGGCGACAGTGCGGTGG

How the values were obtained:
ZmEREB97 [1] = target: T1, ZmEREB97 (Zea mays (B73_v3 gene model; cDNA …, UniProt C4J4G2 1-222); experiment: EMSA; partially competed by 50-fold cold probe; EMSA/Gel Shift Binding Buffer (Beyotime; composition, salt and pH not stated), 25 C, 20 min, about 80 ng protein, 2.5 ng probe; conditions: protein: recombinant; tags: 6xHis (pCold); label: 5'-biotin
ZmEREB97 [2] = target: T1, ZmEREB97; experiment: EMSA; EMSA/Gel Shift Binding Buffer (Beyotime; composition, salt and pH not stated), 25 C, 20 min, about 80 ng protein, 2.5 ng probe; conditions: protein: recombinant; tags: 6xHis (pCold); label: 5'-biotin

T1 sequence (C4J4G2 entry or part of it): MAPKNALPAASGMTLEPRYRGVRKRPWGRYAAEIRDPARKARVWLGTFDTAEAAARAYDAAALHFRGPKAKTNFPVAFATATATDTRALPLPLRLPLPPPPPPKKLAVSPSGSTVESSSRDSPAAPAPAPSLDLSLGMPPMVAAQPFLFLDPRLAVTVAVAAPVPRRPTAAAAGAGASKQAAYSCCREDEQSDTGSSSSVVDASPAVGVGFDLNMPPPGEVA

Binder | binding result (ZmEREB97 [1]) | binding result (ZmEREB97 [2])
B1 | binds | 
B2 | binds | 
B3 |  | binds
B4 | binds | 
B5 | binds | 
B6 | binds | 
B7 | binds | 
